Test results published in patent publication US20200165345A1 (GlaxoSmithKline, published 2020).

How the values were obtained:
[1] = target: T1, human full-length TrkB receptor (human, UniProt Q16620 32-822); assay: cell-based or functional assay
[2] = target: T1, human full-length TrkB receptor; assay: cell-based or functional assay; remark: listed apart in the source
[3] = target: T1, human full-length TrkB receptor; assay: cell-based or functional assay; remark: listed apart in the source
rat TrkB receptor = target: T2, rat TrkB receptor (rat, UniProt Q63604 32-821); assay: method not detailed
T2 construct: whole, on cells; also called rodent TrkB
T2 sequence (Q63604 32-821): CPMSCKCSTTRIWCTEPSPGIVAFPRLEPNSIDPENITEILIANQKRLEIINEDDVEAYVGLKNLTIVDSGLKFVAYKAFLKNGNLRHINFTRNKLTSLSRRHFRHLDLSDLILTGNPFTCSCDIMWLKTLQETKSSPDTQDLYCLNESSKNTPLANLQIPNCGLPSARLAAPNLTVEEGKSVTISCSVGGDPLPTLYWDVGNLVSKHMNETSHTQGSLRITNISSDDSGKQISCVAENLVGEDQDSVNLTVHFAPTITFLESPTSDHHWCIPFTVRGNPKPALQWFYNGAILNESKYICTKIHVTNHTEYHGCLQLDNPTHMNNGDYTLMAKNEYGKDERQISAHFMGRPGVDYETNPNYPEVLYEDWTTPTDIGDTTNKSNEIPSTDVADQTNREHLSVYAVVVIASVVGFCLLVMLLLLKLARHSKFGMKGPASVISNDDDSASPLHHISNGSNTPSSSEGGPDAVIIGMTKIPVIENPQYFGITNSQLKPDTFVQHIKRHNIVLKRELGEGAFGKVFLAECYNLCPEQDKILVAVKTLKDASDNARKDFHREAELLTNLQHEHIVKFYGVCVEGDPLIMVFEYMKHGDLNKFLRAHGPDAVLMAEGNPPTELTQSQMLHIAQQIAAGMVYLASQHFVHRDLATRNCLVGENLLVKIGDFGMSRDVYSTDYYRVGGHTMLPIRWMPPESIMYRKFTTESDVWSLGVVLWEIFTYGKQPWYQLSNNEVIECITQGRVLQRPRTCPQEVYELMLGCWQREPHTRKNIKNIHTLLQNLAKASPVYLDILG

mouse TrkB receptor = target: T3, mouse TrkB receptor (mouse, UniProt P15209 32-821); assay: method not detailed
T3 construct: whole, on cells; also called murine TrkB; rodent TrkB
T3 sequence (P15209 32-821): as the sequence (Q63604 32-821) above, with M3T, T9S, T10A, I32V, K63R, G84S, T153M, I185L, T394S, N770S counted along it

T1 sequence (Q16620 32-822 limits assumed): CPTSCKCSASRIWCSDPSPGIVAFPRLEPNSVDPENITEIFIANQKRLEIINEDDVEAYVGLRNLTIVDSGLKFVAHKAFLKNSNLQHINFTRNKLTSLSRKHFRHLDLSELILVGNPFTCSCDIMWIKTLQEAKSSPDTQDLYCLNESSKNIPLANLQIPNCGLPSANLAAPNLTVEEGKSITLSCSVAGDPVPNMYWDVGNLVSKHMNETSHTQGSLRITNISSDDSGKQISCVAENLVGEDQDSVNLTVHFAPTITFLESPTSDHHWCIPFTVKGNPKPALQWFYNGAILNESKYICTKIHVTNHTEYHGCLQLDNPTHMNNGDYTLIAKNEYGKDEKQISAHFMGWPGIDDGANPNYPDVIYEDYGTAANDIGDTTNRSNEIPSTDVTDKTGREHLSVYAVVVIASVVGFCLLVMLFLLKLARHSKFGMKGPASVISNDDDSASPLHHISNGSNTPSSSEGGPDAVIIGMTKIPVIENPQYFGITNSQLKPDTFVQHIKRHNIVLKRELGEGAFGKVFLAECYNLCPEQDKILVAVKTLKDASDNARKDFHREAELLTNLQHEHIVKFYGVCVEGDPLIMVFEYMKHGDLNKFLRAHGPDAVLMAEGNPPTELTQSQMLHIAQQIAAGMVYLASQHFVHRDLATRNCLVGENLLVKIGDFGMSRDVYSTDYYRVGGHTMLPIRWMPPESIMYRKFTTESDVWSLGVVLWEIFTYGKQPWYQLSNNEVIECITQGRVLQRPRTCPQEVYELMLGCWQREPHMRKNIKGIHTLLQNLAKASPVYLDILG

Potentiation of BDNF-induced agonism of TrkB (pTrkB, % of BDNF alone) [2] [%] | EC50 (read off the curve); pTrkB relative activity in the presence of 10 nM BDNF [3] [nM] | Activation of TrkB (pTrkB, Y515), EC50 [2] [nM] | binding result (rat TrkB receptor) | binding result (mouse TrkB receptor) | levels of phosphorylated TrkB in CHO-K1 cells, EC50 [1] [nM] | neurite outgrowth, PC12 cells expressing human TrkB, EC50 [1] [nM] | Binder | cell survival, PC12 cells expressing human TrkB, EC50 [1] [nM]
~160 | ~0.7 |  |  |  |  |  | 3A3 (antibody, mouse IgG1, kappa, V domains shown) VH: QVQLQQSGAELAKPGASVKMSCKASGYTFSSYWMHWVKQRPGQGLEWIGYINPSTGYTDYNQKFKDKATLTADKSSNTAYMQLSSLTSDDSAVYYCARSRAARYWGQGTTLTVSS VL: not shown | 0.006
~130 | ~10 | 3.1 |  |  |  |  | 1G11 (antibody, V domains shown) VH: QVQLQQSGDDLVKPGASVKLSCKASGYTFTSYYINWIKQRPGQGLECIGRIAPGNTYYNEIFKGKAILTVDTSSSTAYIQLSSLSSEDSGVYFCARRGYEGALDYWGQGTSVTVSS VL: DIVLTQSPATLSVTPGDSVSLSCRASQRISNNLHWYQQKSHESPRLLIKYVSQSISGIPSRFSGSGSGTDFTLSINSVETEDFGMYFCQQSNSWPLTFGAGTKLELKR | 
 |  |  | binds | binds | 0.65 |  | Humanised 1G11 (antibody, human IgG1, kappa, V domains shown, Straight graft of 1G11 CDRs with serine at Kabat position 47 of the heavy chain (H7, Lo1); human IgG1 Fc with L235A and G237A (EU numbering), Fc-disabled; also called humanised 1G11 (H7, Lo1); copies: 2 + 2) VH: QVQLVQSGAEVKKPGSSVKVSCKASGYTFTSYYINWVRQAPGQGLESMGRIAPGNTYYNEIFKGRVTITADKSTSTAYMELSSLRSEDTAVYYCARRGYEGALDYWGQGTLVTVSS VL: EIVLTQSPATLSLSPGERATLSCRASQRISNNLHWYQQKPGQAPRLLIKYVSQSISGIPARFSGSGSGTDFTLTISSLEPEDFAVYYCQQSNSWPLTFGQGTKLEIKR | 
~120 |  |  |  |  |  | 1.58 | 8E5 (antibody, mouse IgG1, kappa, V domains shown) VH: EVQLVESGGDLVKPGGSLKLSCAASGFTFSTYGMSWVRQTPDKGLEWVATVSTGGTYTYYPDSVKGRFTISRDNAKNTLYLQMSSLKSEDTAMYYCARGGYSFAYWGQGTLVTVSA VL: ENVLTQSPAIMSASPGEKVTMTCRASSSVSSSYLHWYQQKSGVSPKLWIYSTSNLASGVPARFSGSGSGTSYSLTISSVEAEDAATYYCQQYSGYPLTFGAGTKLELKR | 0.09
